Reference: US20220090012A1

Target: Transforming Growth Factor Beta Receptor II (TGFBRII) (human) (UniProt P37173)
Experiment: cell-based or functional assay

Chain of Transforming Growth Factor Beta Receptor II (TGFBRII) (human) (P37173 23-567): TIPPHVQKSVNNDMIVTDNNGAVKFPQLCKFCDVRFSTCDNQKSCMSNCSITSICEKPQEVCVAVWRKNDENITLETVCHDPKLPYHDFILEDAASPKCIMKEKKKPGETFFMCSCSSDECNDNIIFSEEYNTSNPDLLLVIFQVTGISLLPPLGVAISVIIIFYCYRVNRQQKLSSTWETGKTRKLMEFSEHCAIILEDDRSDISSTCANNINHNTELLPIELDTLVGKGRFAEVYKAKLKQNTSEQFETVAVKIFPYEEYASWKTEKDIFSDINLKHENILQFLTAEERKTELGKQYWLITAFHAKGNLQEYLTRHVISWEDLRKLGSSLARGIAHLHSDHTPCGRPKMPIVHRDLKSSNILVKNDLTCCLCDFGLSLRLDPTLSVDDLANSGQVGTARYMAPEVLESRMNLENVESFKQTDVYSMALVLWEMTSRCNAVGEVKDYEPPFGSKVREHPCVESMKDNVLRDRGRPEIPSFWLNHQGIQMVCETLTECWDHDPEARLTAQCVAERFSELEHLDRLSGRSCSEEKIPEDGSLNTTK

CAR T cell expansion (cell number over time) with 10, 20, 50 and 100 ng/ml TGF-β: < 10 ng/mL
Substance: recombinant human TGF-β (from UniProt P28072 35-239) (ligand)
